In patent EP2015073A1:

Key:
[1] = target: human Bcl10 (hBcl10), endogenous in the cells used (human) (UniProt O95999); experiment: cell-based or functional assay
[2] = target: FLAG-tagged, point mutated Bcl10 (R228/G) (human) (UniProt O95999); experiment: cell-based or functional assay

Malt1 with deletion of the caspase-like domain (Δcasp) or mutation of the active site residues Cys 464 or His 415
relative NF-κB activity (dual luciferase assay), percent of the maximum level achieved with wt Malt1 [1]: 50 to 65%

human Malt1 (hMalt1), endogenous in the cells used (from UniProt Q9UDY8 1-824) (enzyme)
relative NF-κB activity (dual luciferase assay), percent of the maximum levels (wt Bcl10) [2]: 75%
